Test results reported in patent US20030162277.

Tests used:
[1] = target: T1, abl tyrosine kinase substrate peptide EAIYAAPFAKKK
T1 chain: EAIYAAPFAKKK

[2] = target: T2, cdc2-kinase substrate peptide Ac-SPGRRRRK
T2 chain: SPGRRRRK

[3] = target: T3, p42/p44 MAP kinase substrate peptide LMECRNSPVAKT
T3 chain: LMECRNSPVAKT

[4] = target: T4, casein kinase I substrate peptide RRKDLHDDEEDEAMSITA
T4 chain: RRKDLHDDEEDEAMSITA

[5] = target: T5, raf-1 kinase substrate peptide SGQLIDSMANSFVGTRS
T5 chain: SGQLIDSMANSFVGTRS

[6] = target: T6, myosin light chain kinase substrate peptide KKRPQRATSNVFS
T6 chain: KKRPQRATSNVFS

[7] = target: T7, casein kinase II substrate peptide RRRDDDSDDD
T7 chain: RRRDDDSDDD

[8] = target: T8, Ca-/calmodulin-dependent PK substrate peptide PLARTLSVAGLPGK
T8 chain: PLARTLSVAGLPGK

[9] = target: T9, p42/p44 MAP kinase substrate peptide APRTPGGRR
T9 chain: APRTPGGRR

[10] = target: T10, protein kinase C substrate peptide QKRPSQRSK
T10 chain: QKRPSQRSK

[11] = target: T11, c-src tyrosine kinase substrate peptide YIYGSFK
T11 chain: YIYGSFK

[12] = target: T12, insulin receptor tyrosine kinase substrate peptide KKKLPATGDYMNMSPVGD
T12 chain: KKKLPATGDYMNMSPVGD

[13] = target: T13, cGMP-dependent protein kinase substrate peptide RKISASEFDRPLR
T13 chain: RKISASEFDRPLR

[14] = target: T14, cAMP-dependent protein kinase substrate peptide LRRASLG
T14 chain: LRRASLG

[15] = target: T15, Ca-/calmodulin-dependent PK substrate peptide KKALRRQETVDAL
T15 chain: KKALRRQETVDAL

[16] = target: T16, csk tyrosine kinase substrate peptide KKKKEEIYFFF
T16 chain: KKKKEEIYFFF

[17] = target: T17, p34 cdc-kinase substrate peptide PKTPKKAKKL
T17 chain: PKTPKKAKKL

[18] = target: T18, protein kinase C substrate peptide KKRFSFKKSFKLSGFSFK
T18 chain: KKRFSFKKSFKLSGFSFK

[19] = target: T19, p42/p44 MAP kinase substrate peptide EAAEAEPAEPSSPAAEAEGA
T19 chain: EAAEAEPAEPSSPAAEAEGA

[20] = target: T20, S6 kinase substrate peptide LSSLRASTSKSGGQK
T20 chain: LSSLRASTSKSGGQK

B1: Murine Lymph node Stromal cell Kinase 1 (MLSK-1) (protein)
chain: MESVALLQRPSQAPSASALASESARPLADGLIKSPKPLMKKQAVKRHHHKHNLRHRYEFLETLGKGTYGKVKKARESSGRLVAIKSIRKDKIKDEQDLLHIRREIEIMSSLNHPHIIAIHEVFENSSKIVIVMEYASRGDLYDYISERPRLSERDARHFFRQIVSALHYCHQNGIVHRDLKLENILLDANGNIKIADFGLSNLYHKGKFLQTFCGSPLYASPEIVNGKPYVGPEVDSWSLGVLLYILVHGTMPFDGQDHKTLVKQISNGAYREPPKPSDACGLIRWLLMVNPTRRATLEDVASHWWVNWGYTTGVGEQEALREGGHPSGDFGRASMADWLRRSSRPLLENGAKVCSFFKQHVPGGGSTVPGLERQHSLKKSRKENDMAQNLQGDPAEDTSSRPGKSSLKLPKGILKKKSSTSSGEVQEDPQELRPVPDTPGQPVPAVSLLPRKGILKKSRQRESGYYSSPEPSESGELLDASDVFVSGDPVEQKSPQASGLLLHRKGILKLNGKFSRTALEGTTPSTFGSLDQLASSHPAARPSRPSGAVSEDSILSSESFDQLDLPERLPETPLRGCVSVDNLRGLEQPPSEGLKRWWQESLGDSCFSLTDCQEVTAAYRQALGICSKLS
- Phosphorylation by MLSK-1 (% of max.) [1]: 69.3 % of max.
- Phosphorylation by MLSK-1 (% of max.) [2]: 94.8 % of max.
- Phosphorylation by MLSK-1 (% of max.) [3]: 3.8 % of max.
- Phosphorylation by MLSK-1 (% of max.) [4]: 14.1 % of max.
- Phosphorylation by MLSK-1 (% of max.) [5]: 43.1 % of max.
- Phosphorylation by MLSK-1 (% of max.) [6]: 72 % of max.
- Phosphorylation by MLSK-1 (% of max.) [7]: 17.6 % of max.
- Phosphorylation by MLSK-1 (% of max.) [8]: 10.3 % of max.
- Phosphorylation by MLSK-1 (% of max.) [9]: 88.6 % of max.
- Phosphorylation by MLSK-1 (% of max.) [10]: 75 % of max.
- Phosphorylation by MLSK-1 (% of max.) [11]: 66.6 % of max.
- Phosphorylation by MLSK-1 (% of max.) [12]: 33.7 % of max.
- Phosphorylation by MLSK-1 (% of max.) [13]: 62.2 % of max.
- Phosphorylation by MLSK-1 (% of max.) [14]: 65.9 % of max.
- Phosphorylation by MLSK-1 (% of max.) [15]: 20.9 % of max.
- Phosphorylation by MLSK-1 (% of max.) [16]: 82.1 % of max.
- Phosphorylation by MLSK-1 (% of max.) [17]: 82 % of max.
- Phosphorylation by MLSK-1 (% of max.) [18]: 100 % of max.
- Phosphorylation by MLSK-1 (% of max.) [19]: 0 % of max.
- Phosphorylation by MLSK-1 (% of max.) [20]: 66.6 % of max.
